Measurements taken from US20250304718A1, “HER2 SINGLE DOMAIN ANTIBODY AND USES THEREOF” (Institut Curie, priority 2024, published 2025).

Key:
SKBR3 cells = assay: FACS binding of sdAb on SKBR3 cells; conditions: SKBR3 overexpresses HER2 on its surface; data not shown
Method: (§1) From inventors humanized sdAb libraries, a phage display subtraction selection system was developed to identify sdAbs that selectively detect the surface of breast tumor cells. The SKBR3 target cell line was used because it overexpresses the HER2 protein on its surface, while the MCF10A cell line, derived from non-cancerous and HER2-negative mammary gland cells, was used to pre-adsorb the libraries. After 3 successive cycles of selection on these cell lines, sdAb clones were analyzed by flow cytometry (FACS) for their binding capacity on SKBR3 cells and MCF10A cells.
(§2) A human VH anti-HER2 was selected for further experiments.

MCF10A cells = assay: FACS binding of sdAb on MCF10A cells; conditions: MCF10A non-cancerous, HER2-negative; data not shown
Method: as §1, §2

[1] = target: T1, Her2 recombinant ectodomain fused to a Rabbit Fc domain (Homo sapiens, UniProt P04626); assay: ELISA on Her2 recombinant ectodomain; type: binding; conditions: data not shown
T1 construct: validated by ELISA on Her2 recombinant ectodomain fused to a Rabbit Fc domain; Rabbit Fc domain
From the text: The anti-HER2 sdAb was afterward validated by ELISA on Her2 recombinant ectodomain fused to a Rabbit Fc domain (data not shown).

[2] = tested on: Jurkat-derived clone bearing a NFAT-YFP gene reporter; assay: Reporter cell system for CAR-T cell activity (FACS); type: cell-based; conditions: sdAb in second generation CAR (CD8 TM, 4-1BB, CD3z)
From the text: The anti-HER2 sdAb of the invention was also validated for use in CAR-T format. The model of CAR chosen is the one used to treat diffuse lymphomas (Linguanti F, Abenavoli E M, Berti V, Lopci E. Metabolic Imaging in B-Cell Lymphomas during CAR-T Cell Therapy. Cancers (Basel). 2022 Sep. 27; 14(19):4700. doi: 10.3390/cancers14194700. PMID: 36230629; PMCID: PMC9562671). This anti-lymphoma CAR-T therapy called “second generation” comprises the transmembrane domain of CD8, a costimulation domain from 4-1BB and the CD3z signaling domain. In the case of Kymriah® targeting B lymphocytes, the binding module is an anti-CD19 scFv. In the construction of the invention, the anti-CD19 scFv was replaced by the anti-Her2 sdAb of the invention.
The inventors developed a reporter cell system allowing to identify CAR-T cell activity. It is based on a Jurkat-derived clone bearing a NFAT-YFP gene reporter activated by TCR clustering (Blanchard N. et al, The Journal of Immunology, 2004).

[3] = target: T2, Her2 recombinant ectodomain fused to a Rabbit Fc domain (human; rabbit, UniProt P04626 23-652); assay: ELISA on recombinant Her2 ectodomain-Rabbit Fc
T2 construct: also called Her2 ectodomain-Rabbit Fc; not shown: Rabbit Fc domain

[4] = target: T3, HER2 (Receptor tyrosine-protein kinase erbB-2) on the surface of SKBR3 cells (human, UniProt P04626 23-1255); assay: flow cytometry (FACS) on SKBR3 cells overexpressing HER2; MCF10A HER2-negative cells as control
T3 construct: Endogenous HER2 overexpressed on the SKBR3 breast tumor cell line; also called CD340
Method: as §1

Molecule	recognition on SKBR3 cells in FACS (SKBR3 cells)	recognition on MCF10A cells in FACS (MCF10A cells)	validation by ELISA [1]	activation detected by FACS [2]	binding result [3]	binding result [4]
anti-HER2 sdAb: fully humanized anti-HER2 VH single domain antibody, SEQ ID NO:2, CDRs SEQ ID NO:7-9 (protein) VHH: MAEVQLVESGGGLVQPGGSLRLSCAASGAFYKAYNMGWVRQAPGKGLEWVSAISATQGKWVYYADSVKGRFTISRDNSKNTVYLQMNSLRAEDTAVYYCAKLPISKKALYRGQGTLVTVSS	specific recognition	not on MCF10A cells	validated	specific activation	–	–
humanized anti-HER2 single domain antibody (sdAb) of the invention (VHH, Synthetic humanized/human VH single domain antibody (not a camelid VHH), selected by phage display on SKBR3 cells; also called VH anti-Her2; human VH anti-HER2) VHH: EVQLVESGGGLVQPGGSLRLSCAASGAFYKAYNMGWVRQAPGKGLEWVSAISATQGKWVYYADSVKGRFTISRDNSKNTVYLQMNSLRAEDTAVYYCAKLPISKKALYRGQGTLVTVSS	–	–	–	–	binds	binds
